One series deals with T1, WUS-1 (Myroides albus, UniProt A0A6I3LH21, K23R).
T1 construct: gene bla; mature domain, signal peptide removed (predicted cleavage between 19 and 20, Ala/Gln); pCold I in E. coli BL21, His-tag cut with thrombin; zinc enzyme
Briefly: spectrophotometric imipenem hydrolysis, inhibition. It is filed as biochemical.

Series [1] relates to CC1(C)S[C@@H]2[C@H](NC(=O)C(C(=O)O)c3ccccc3)C(=O)N2[C@H]1C(=O)O. Briefly: continuous spectrophotometric hydrolysis assay, Michaelis-Menten fit. It is filed as biochemical, Myroides albus. The following applies: 10 mM phosphate pH 7.4, 50 μM ZnCl2, 30 °C, SD within 15%. An excerpt:
(§1) continuous spectrophotometric hydrolysis assay, Michaelis-Menten fit on WUS-1

The test system of series [2] is CC1(C)S[C@@H]2[C@H](NC(=O)[C@H](C(=O)O)c3ccsc3)C(=O)N2[C@H]1C(=O)O. The series is described as above. In kind it is biochemical, Myroides albus. The following applies: 10 mM phosphate pH 7.4, 50 μM ZnCl2, 30 °C, SD within 15%.
Text: as §1

Series [3] concerns CC1(C)S[C@@H]2[C@H](NC(=O)[C@H](N)c3ccccc3)C(=O)N2[C@H]1C(=O)O. Described as above. In kind it is biochemical, Myroides albus. The following applies: 10 mM phosphate pH 7.4, 50 μM ZnCl2, 30 °C, SD within 15%.
Text: as §1

The subject of series [4] is CO[C@@]1(NC(=O)Cc2cccs2)C(=O)N2C(C(=O)O)=C(COC(N)=O)CS[C@@H]21. The series is described as above. The following applies: 10 mM phosphate pH 7.4, 50 μM ZnCl2, 30 °C, SD within 15%. It is filed as biochemical, Myroides albus.
Text: as §1

For series [5], the system named is C[C@@H](O)[C@H]1C(=O)N2C(C(=O)O)=C(SCCN=CN)C[C@H]12. The description is as above. It is filed as biochemical, Myroides albus. The following applies: 10 mM phosphate pH 7.4, 50 μM ZnCl2, 30 °C, SD within 15%.
Text: as §1

For series [6], the system named is C[C@@H](O)[C@H]1C(=O)N2C(C(=O)O)=C(S[C@@H]3CN[C@H](C(=O)N(C)C)C3)[C@H](C)[C@H]12. Described as above. It is filed as biochemical, Myroides albus. Particulars: 10 mM phosphate pH 7.4, 50 μM ZnCl2, 30 °C, SD within 15%.
Text: as §1

Series [7] concerns Cc1nnc(SCC2=C(C(=O)O)N3C(=O)[C@@H](NC(=O)Cn4cnnn4)[C@H]3SC2)s1. Described as above. It is filed as biochemical, Myroides albus. The following applies: 10 mM phosphate pH 7.4, 50 μM ZnCl2, 30 °C, SD within 15%.
Text: as §1

T1 sequence (A0A6I3LH21 entry or part of it K23R): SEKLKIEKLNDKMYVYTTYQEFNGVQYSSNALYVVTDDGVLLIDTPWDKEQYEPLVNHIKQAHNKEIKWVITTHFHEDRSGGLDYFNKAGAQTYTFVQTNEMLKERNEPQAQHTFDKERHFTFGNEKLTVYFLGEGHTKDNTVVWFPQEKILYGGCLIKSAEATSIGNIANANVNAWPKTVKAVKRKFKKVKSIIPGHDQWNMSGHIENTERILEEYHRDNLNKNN

The compound `O=C(O)CN(CCN(CC(=O)O)CC(=O)O)CC(=O)O` [EDTA] yielded an IC50 against WUS-1 of 71.3 µM.

For WUS-1 (Myroides albus; K23R), the Km in series [1] was 581 µM; in series [2] it was 827.4 µM; in series [3], 290.2 µM; in series [4], 44.33 µM; in series [5], 334.8 µM; in series [6] it was 147.4 µM. Moreover, the Km in series [7] was 59.86 µM. In addition, the kcat is 1120 s⁻¹ in series [1]; 703 s⁻¹ in series [2]; 2920 s⁻¹ in series [3]; 14.2 s⁻¹ in series [4]; 1340 s⁻¹ in series [5]; 477 s⁻¹ in series [6]. Moreover, the kcat in series [7] came to 33.9 s⁻¹. Further, the specificity constant (kcat/Km) was 1.93e+06 M⁻¹ s⁻¹ in series [1]; 850000 M⁻¹ s⁻¹ in series [2]; 1.01e+07 M⁻¹ s⁻¹ in series [3]; 320000 M⁻¹ s⁻¹ in series [4]; 3.99e+06 M⁻¹ s⁻¹ in series [5]; 3.24e+06 M⁻¹ s⁻¹ in series [6]. Also, in series [7], the kcat/Km was 570000 M⁻¹ s⁻¹.

What is called IC50 is the concentration that inhibits the measured activity by half. Read a high IC50 as weaker potency in that assay. What is called Km is the substrate concentration at which the rate is half of its maximum. Usually kcat stands for the number of substrate molecules converted per active site and unit of time at saturation. By kcat/Km is commonly meant the second-order rate constant that governs catalysis at low substrate concentration.

(Values after PMC9751785, “Characterization and Identification of a novel chromosome-encoded metallo-β-lactamase WUS-1 in Myroides albus P34” (Frontiers in Microbiology, 2022).)
